In patent publication US20030049649, “Targeted modification of chromatin structure” (published 2003):

Biological target: T1, Veg1 (unfused three-finger ZFP) (Artificial (human SP1 backbone), UniProt P08047 SEQ:1-99)
T1 chain: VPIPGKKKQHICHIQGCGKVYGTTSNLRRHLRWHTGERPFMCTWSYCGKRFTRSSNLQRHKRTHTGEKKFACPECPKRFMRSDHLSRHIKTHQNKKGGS
Test: EMSA; apparent Kd (half-maximal binding), 100 mM KCl, 1 mM MgCl2, 100 uM ZnCl2, room temperature; not corrected for purity
Settings: tags: none, expressed in E. coli BL21/DE3 from pET15b, >50% pure; label: 5' 32P top strand
Description: Assays for binding of Veg1 to the target oligonucleotide (above) were performed by titrating protein against a fixed amount of duplex target. Binding reactions contained 50 pM 5′ ³²P labeled double stranded target DNA, 10 mM Tris-HCl (pH 7.5), 100 mM KCl, 1 mM MgCl₂, 1 mM dithiothreitol, 10% glycerol, 200 μg/ml bovine serum albumin, 0.02% NP-40, 20 μg/ml poly dI-dC (optionally), and 100 μM ZnCl₂, in a final volume of 20 μl. Protein was added to the binding reaction as one-fifth volume from a dilution series made in 200 mM NaCl, 20 mM Tris (pH 7.5), 1 mM DTT. Binding was allowed to proceed for 45 min at room temperature. Polyacrylamide gel electrophoresis was carried out at room temperature using precast 10% or 10-20% Tris-HCl gels (BioRad, Hercules, Calif.) and Tris-Glycine running buffer (25 mM Tris-HCl, 192 mM glycine, pH 8.3) containing 0.1 mM ZnCl₂. Radioactive signals were quantitated with a Phosphorimager.
Shifted product, indicative of labeled target with bound protein, is indicated by an arrow in FIG. 2A. The amount of shifted product was determined at each protein concentration and quantitated on a Phosphorimager (Molecular Dynamics). The relative signal (percent of maximal amount of shifted product) was plotted as a function of log₁₀ protein concentration. […]

B1: Veg1 29-mer target duplex (dsDNA)
DNA 1: CATGCATAGCGGGGAGGATCGCCATCGAT
DNA 2: ATCGATGGCGATCCTCCCCGCTATGCATG
Kd: ~50 nM
